Measurements: paper PMC9621694 (2022)

Key:
Experiment in all cases: SPR
[1] = molecular target: rsvfv_hal_2
[2] = molecular target: rsvfv_hal_1
[3] = molecular target: rsvfv_hal_3

Kd [1]: 1 µM
Kd [2]: 0.9 µM
Kd [3]: 1.3 µM
B1: neutralizing antibody hRSV90 (antibody, V domains shown)
VH: EVQLVESGGGLVQPRRSLRLSCAASGFTFDDYTIHWVRQAPGKGLEWVSGITWNSGYIGYADSVKGRFTISRDNARNSLYLQMNSLRAEDTALYYCVRDAYVSGSDYYYYGLDVWGRGTLVTVSS
VL: EIVMTSSPATLSVSPGERVTLFCRASQSVISNLAWYQQKSGQAPRLLIYGASTRATGIPSRFSGSGSGTEFTLTISSLQSEDFAVYFCQQYNNWPLTFGGGTQVNVQ
